Measured values published in the supplement of paper PMC10567573.
± gives the standard deviation.

Test: protein stability index of a GFP-peptide fusion (GPS, HEK-293T) (PSI 1-6); higher = more stable
Conditions: c terminus: a fixed tail appended
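Further: 24-mer peptide tiles fused after GFP, lentivirally expressed, FACS-sorted into six equal bins by GFP/DsRed ratio, decoded by Illumina sequencing, PSI is the read-weighted mean bin number.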

Row | Sequence | protein stability index (treatment: DMSO) | protein stability index (treatment: MLN4924 1 uM, 8 h)
1 | MDNNRNLDLDSIIDEVRTQYEEIA [KRT71] | 4.14 ± 0.26 | 4.13 ± 0.17
2 | MEEMQNKAVVFFVFYLWSAIEIFR [HACD3] | 2.7 | 2.8 ± 0.63
3 | MENKKKDKDKSDDRMARPSGRSGH [CSNK1G3] | 5.42 ± 0.34 | 5.31 ± 0.44
4 | MGGTTSTRRVTFEADENENITVVK [CHCHD3] | 4.95 ± 0.27 | 5.11 ± 0.21
5 | MIEDNKENKDHSLERGRASLIFSL [TPH1] | 3.25 ± 0.36 | 3.36 ± 0.18
6 | MIHRTRKQKYFYKGGLVWDENSSD [CLK3] | 3.06 ± 0.22 | 3.06 ± 0.23
7 | MKEFSNQVVGQVNVEMDATPGIDL [KRT13] | 4.58 ± 0.16 | 4.44 ± 0.27
8 | MKEQDLMCIKLHGVSKVGLRKIID [KLHL13] | 2.18 ± 0.53 | 2.15 ± 0.44
9 | MKGFSFKEDTLLLIAEVMGEDIPE [C8orf76] | 2.09 ± 0.11 | 2.21 ± 0.24
10 | MKIKQDRASRTYELQNQLAACTRA [FSD1] | 3.52 ± 0.12 | 3.62 ± 0.38
11 | MKRHSSRDAAGKPQRPRSAPRTSS [FCHO1] | 4.82 ± 0.28 | 4.92 ± 0.34
12 | MNEHPVCSRTWTNRLCHQEMGSKK [SPAG8] | 3.94 ± 0.28 | 4.09 ± 0.12
13 | MPPLLPLRLCRLWPRNPPSRLLGA [DNAJC4] | 2.29 ± 0.37 | 2.15 ± 0.11
14 | MPSSTTQKDSYQPPGNVYWPLRGK [SPAG8] | 4.21 ± 0.28 | 4.22 ± 0.28
15 | MQQSNLDPLSPMTASSLLSFAELF [FEM1C] | 2.83 ± 0.29 | 2.52 ± 0.42
16 | MRGFKGDRGPKGEKGEKGDRAGDA [SCARA5] | 5.41 ± 0.25 | 5.44 ± 0.44
17 | MRHLSTGTMTGLAIQYALNIAFSE [MATN2] | 3.08 ± 0.49 | 3.33 ± 0.25
18 | MRYEEEGMSYLYASWMYQLQHGDQ [TEX19] | 2.3 ± 0.29 | 2.13 ± 0.17
19 | MSLFSLYMVQDQHECILPFVQVKG [M1AP] | 2.43 ± 0.54 | 2.14 ± 0.56
20 | MSYHSGSVFSARDRDPNSLLISCA [TNXB] | 2.51 ± 0.2 | 2.44 ± 0.15
21 | MTETDAFYKREMFDPAEKYKMDHR [CASP6] | 4.05 ± 0.25 | 4.1 ± 0.29
22 | MTGRAMDPLPAAAVGAAAEAEADE [SNX8] | 5.52 ± 0.3 | 5.78 ± 0.12
23 | MTTCSRQFTSSSSMKGSCGIGGGI [KRT16] | 2.41 ± 0.5 | 2.33 ± 0.16

Row | Sequence | protein stability index (treatment: DMSO) | protein stability index (treatment: MLN4924 1 uM, 8 h)
24 | MWDTKTLGLRQHHCRKCGQAVCGK [WDFY1] | 3.21 ± 0.25 | 3.4 ± 0.27
25 | MWYPEIKHFCPRAPVILVGCQLDL [RHOBTB2] | 3.24 ± 0.81 | 2.77 ± 0.28
26 | NAQIPELKSDLEKASALNTKIRAL [CD207] | 4.016 ± 0.023 | 3.86 ± 0.48
27 | NCMAEKRETVLIETQLKACASFIR [C8orf76] | 2.23 ± 0.32 | 2.25 ± 0.45
28 | NCTLIISYQKPKEVVVAESELQKE [DPCD] | 2.18 ± 0.19 | 2.49 ± 0.2
29 | NDDYYEESYFTTRTYGEPESAGPS [EMD] | 4.84 ± 0.17 | 4.72 ± 0.17
30 | NDEIEEVRLQSIHTMRKISNNITL [INTS4] | 3.75 ± 0.23 | 3.69 ± 0.18
31 | NEHKSCEEKSVKNTSIRVADFGSA [CLK3] | 4.89 ± 0.16 | 5.03 ± 0.14
32 | NFIVNDSRKKPIWNVLMWTSLFLG [SOAT1] | 2.08 ± 0.14 | 2.2 ± 0.45
33 | NFVHRFPFVAVSIGFAVNKKIEFG [IMPA1] | 2.91 ± 0.76 | 2.77 ± 0.61
34 | NGERESGLRSLRLFQKLEENGDLY [WDR41] | 3.29 ± 0.12 | 3.52 ± 0.23
35 | NGMNAVMMHGRSYSLASGAGGGGS [RAB40C] | 3.19 ± 0.26 | 3.34 ± 0.34
36 | NGSLYGQASSERLGLDNRLFGHPG [ADAMTSL2] | 3.17 ± 0.53 | 3.46 ± 0.25
37 | NGSMAMGTVPGQAPRLAVAVPAVT [LYSMD4] | 3.77 ± 0.43 | 4 ± 0.23
38 | NGVRVFPPAMPPPATHLSPALAPV [TRIM9] | 3.22 ± 0.28 | 3.34 ± 0.14
39 | NIDIQNGFLLRYAVIKSNHSYCRM [ASB7] | 2.57 ± 0.38 | 2.54 ± 0.36
40 | NILEKEVLPPIHAYGNRTECRNPQ [FEM1B] | 4.03 ± 0.079 | 4.18 ± 0.11
41 | NIPGDVLRAVEQAMGHSQDRLTTF [LRRC45] | 3.09 ± 0.14 | 3.19 ± 0.078
42 | NKPMLADVVFEIQGTTVPAHRAIL [RHOBTB3] | 2.3 ± 0.27 | 2.29 ± 0.2
43 | NLGRMIDWVPVESLLRPLNSLAAL [ZER1] | 1.72 ± 0.18 | 2.28 ± 0.66
44 | NLKFITDPFVCRLRHLSPTPSEEH [OR4A15] | 2.54 ± 0.11 | 3 ± 0.2
45 | NLLDVYSSQGVATPAITVSNSCPA [TFE3] | 3.4 ± 0.15 | 3.34 ± 0.22
